Target: rabbit skeletal muscle F-actin (rabbit), P68135
Assay: nanosecond emission anisotropy
Conditions: remark: other sources report otherwise

B1: IAENS-labeled Dictyostelium severin, P10733 1-362 (natural protein)
chain: MIKNRKLDITSTNVAGIGTDLDKKCRLDAASTEAQWKGVGQAPGLKIWRIENFKVVPVPESSYGKFYDGDSYIILHTFKEGNSLKHDIHFFLGTFTTQDEAGTAAYKTVELDDFLGGAPIQYRQCQSYESPSFLSLFPKYFILSGGVESGFNHVKPTEYKPRLLHISGDKNAKVAEVPLATSSLNSGDCFLLDAGLTIYQFNGSKSSPQEKNKAAEVARAIDAERKGLPKVEVFCETDSDIPAEFWKLLGGKGAIAAKHETAPTKSEKVLYKLSDASGSLKFSEVSRGKINKSSLKSEDVFIIDLGNEIYTWIGSKSSPNEKKTAFSHATQYLVNNKRCEYTPIVRVLENGTNQSFETLLSA
modifications: here or on the partner: one to two IAENS molecules attached to the protein (residues not stated)
With B1 the rotational correlation time was > 400 ns.

Source: article PMC2112927
